Assay results reported in patent US20190077860A1 (EISAI R AND D MANAGEMENT, published 2019).
Where a chain is given by its changes, count along the chain named.

T1: human EphB3 extracellular region-SEAP-His protein (human, UniProt P54753 34-559)
T1 construct: extracellular domain; also called hEphB3-SEAP-His
T1 sequence (looked up): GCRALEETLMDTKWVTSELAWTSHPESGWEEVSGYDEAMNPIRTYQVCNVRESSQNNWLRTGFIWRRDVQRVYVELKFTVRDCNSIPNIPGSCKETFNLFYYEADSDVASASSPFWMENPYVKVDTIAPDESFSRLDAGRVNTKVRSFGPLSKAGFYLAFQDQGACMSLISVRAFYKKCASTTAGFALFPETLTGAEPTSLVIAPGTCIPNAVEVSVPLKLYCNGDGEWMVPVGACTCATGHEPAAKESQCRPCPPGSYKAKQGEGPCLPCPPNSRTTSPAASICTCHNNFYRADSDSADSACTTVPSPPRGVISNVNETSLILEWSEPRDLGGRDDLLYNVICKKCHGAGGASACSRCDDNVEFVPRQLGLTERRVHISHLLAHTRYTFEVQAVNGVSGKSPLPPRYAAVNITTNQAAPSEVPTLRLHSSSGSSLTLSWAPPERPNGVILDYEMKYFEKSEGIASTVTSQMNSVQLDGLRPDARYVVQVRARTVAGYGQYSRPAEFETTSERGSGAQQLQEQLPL

T2: human EphA7 extracellular region-SEAP-His protein (human, UniProt Q15375 28-555)
T2 construct: extracellular domain; also called hEphA7-SEAP-His
T2 sequence (looked up): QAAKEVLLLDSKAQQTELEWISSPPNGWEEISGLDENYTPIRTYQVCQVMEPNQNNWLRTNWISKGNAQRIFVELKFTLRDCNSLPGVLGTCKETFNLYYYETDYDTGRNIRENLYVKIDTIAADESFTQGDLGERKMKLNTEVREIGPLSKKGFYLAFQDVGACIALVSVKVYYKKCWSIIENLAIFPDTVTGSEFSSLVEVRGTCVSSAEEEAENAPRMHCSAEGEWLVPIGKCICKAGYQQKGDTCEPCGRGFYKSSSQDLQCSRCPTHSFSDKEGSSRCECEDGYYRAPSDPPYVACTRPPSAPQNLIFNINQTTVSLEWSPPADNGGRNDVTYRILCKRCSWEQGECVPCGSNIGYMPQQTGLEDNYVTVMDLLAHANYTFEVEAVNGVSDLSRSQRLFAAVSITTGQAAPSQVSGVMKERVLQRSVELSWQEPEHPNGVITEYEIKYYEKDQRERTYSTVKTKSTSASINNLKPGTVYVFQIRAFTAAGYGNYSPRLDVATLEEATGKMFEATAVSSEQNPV

T3: human EphA8 extracellular region-SEAP-His protein (human, UniProt P29322 28-542)
T3 construct: extracellular domain; also called hEphA8-SEAP-His
T3 sequence (looked up): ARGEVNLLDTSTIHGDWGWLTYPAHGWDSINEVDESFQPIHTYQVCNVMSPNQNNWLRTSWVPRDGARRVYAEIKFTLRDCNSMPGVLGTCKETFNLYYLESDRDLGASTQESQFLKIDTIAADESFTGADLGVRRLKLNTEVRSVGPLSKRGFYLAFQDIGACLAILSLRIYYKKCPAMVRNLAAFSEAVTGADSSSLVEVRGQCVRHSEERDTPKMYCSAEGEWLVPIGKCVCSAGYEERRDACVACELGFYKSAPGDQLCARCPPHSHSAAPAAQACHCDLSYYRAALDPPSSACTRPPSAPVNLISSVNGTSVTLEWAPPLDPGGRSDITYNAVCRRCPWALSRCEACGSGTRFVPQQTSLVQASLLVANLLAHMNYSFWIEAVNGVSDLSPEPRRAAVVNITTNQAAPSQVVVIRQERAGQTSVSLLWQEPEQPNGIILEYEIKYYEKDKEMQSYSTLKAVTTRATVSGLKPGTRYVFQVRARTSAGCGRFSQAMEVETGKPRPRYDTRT

T4: human EphA1 extracellular region-SEAP-His protein (human, UniProt P21709 26-547)
T4 construct: extracellular domain; also called hEphA1-SEAP-His
T4 sequence (looked up): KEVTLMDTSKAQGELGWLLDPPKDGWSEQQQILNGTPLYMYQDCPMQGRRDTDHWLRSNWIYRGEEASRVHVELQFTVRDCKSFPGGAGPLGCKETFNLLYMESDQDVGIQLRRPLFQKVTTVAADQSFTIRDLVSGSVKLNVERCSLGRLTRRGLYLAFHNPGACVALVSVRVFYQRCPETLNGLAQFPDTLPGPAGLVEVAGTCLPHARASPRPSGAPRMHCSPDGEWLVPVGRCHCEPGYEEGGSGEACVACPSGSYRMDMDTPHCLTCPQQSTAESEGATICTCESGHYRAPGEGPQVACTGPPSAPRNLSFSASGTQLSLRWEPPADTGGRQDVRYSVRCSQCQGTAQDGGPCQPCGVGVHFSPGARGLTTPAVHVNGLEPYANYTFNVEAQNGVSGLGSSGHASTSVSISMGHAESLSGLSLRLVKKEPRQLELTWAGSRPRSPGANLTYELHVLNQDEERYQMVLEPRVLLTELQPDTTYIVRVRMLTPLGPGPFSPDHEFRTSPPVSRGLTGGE

B1: humanized antibody No. 152 (antibody, human IgG2)
heavy: QVQLVQSGSELKKPGASVKVSCKASGYTFTDYSMHWVRQAPGQGLEWMGWINTETGEPTYAQGFTGRFVFSLDTSVSTAYLQISSLKAEDTAVYYCARIPLYYYGSRYWYFDVWGQGTTVTVSSASTKGPSVFPLAPSSRSTSESTAALGCLVKDYFPEPVTVSWNSGALTSGVHTFPAVLQSSGLYSLSSVVTVPSSNFGTQTYTCNVDHKPSNTKVDKTVERKSCVECPPCPAPPAAAPSVFLFPPKPKDTLMISRTPEVTCVVVDVSHEDPEVQFNWYVDGVEVHNAKTKPREEQFNSTFRVVSVLTVVHQDWLNGKEYKCKVSNKGLPAPIEKTISKTKGQPREPQVYTLPPSREEMTKNQVSLTCLVKGFYPSDIAVEWESNGQPENNYKTTPPMLDSDGSFFLYSKLTVDKSRWQQGNVFSCSVMHEALHNHYTQKSLSLSPG
light: DIQMTQSPSSLSASVGDRVTITCRASENIYRNLAWYQQKPGKAPKLLLYAATNLADGVPSRFSGSGSGTDYTLTISSLQSEDFATYYCQHFWGTPWTFGQGTKVEIKRTVAAPSVFIFPPSDEQLKSGTASVVCLLNNFYPREAKVQWKVDNALQSGNSQESVTEQDSKDSTYSLSSTLTLSKADYEKHKVYACEVTHQGLSSPVTKSFNRGEC
notes: human Ig kappa; also called L1-5/HA1
B2: humanized antibody No. 134 (antibody, human IgG2)
heavy: B1 heavy with E46K
light: EIVMTQSPATLSVSPGERATLSCRASENIYRNLAWYQQKPGQSPRLLIYAATNLADGIPARFSGSGSGTEYTLTISSLQSEDFAVYYCQHFWGTPWTFGQGTKVEIKRTVAAPSVFIFPPSDEQLKSGTASVVCLLNNFYPREAKVQWKVDNALQSGNSQESVTEQDSKDSTYSLSSTLTLSKADYEKHKVYACEVTHQGLSSPVTKSFNRGEC
notes: human Ig kappa; also called L2-4/HA2
B3: humanized antibody No. 133 (antibody, human IgG2)
heavy: B1 heavy
light: B2 light
notes: human Ig kappa; also called L2-4/HA1
B4: humanized antibody No. 157 (antibody, human IgG2)
heavy: B1 heavy
light: B1 light with K45Q, S80P
notes: human Ig kappa; also called L1-6/HA1
B5: humanized antibody No. 156 (antibody, human IgG2)
heavy: B1 heavy with V2I, E46K
light: B1 light with K45Q, S80P
notes: human Ig kappa; also called L1-6/HA4
B6: humanized antibody No. 159 (antibody, human IgG2)
heavy: B1 heavy with E46K, Q62D, G63D, T65K
light: B1 light with K45Q, S80P
notes: human Ig kappa; also called L1-6/HK2
B7: humanized antibody No. 160 (antibody, human IgG2)
heavy: B1 heavy with V2I, E46K, Q62D, G63D, T65K
light: B1 light with K45Q, S80P
notes: human Ig kappa; also called L1-6/HK4
B8: humanized antibody No. 154 (antibody, human IgG2)
heavy: B1 heavy with Q62D, G63D, T65K
light: B1 light
notes: human Ig kappa; also called L1-5/HK1
B9: humanized antibody No. 132 (antibody, human IgG2)
heavy: B1 heavy with V2I, E46K
light: B2 light
notes: human Ig kappa; also called L2-4/HA4
B10: humanized antibody No. 153 (antibody, human IgG2)
heavy: B1 heavy with E46K
light: B1 light
notes: human Ig kappa; also called L1-5/HA2
B11: humanized antibody No. 155 (antibody, human IgG2)
heavy: B1 heavy with V2I, E46K, Q62D, G63D, T65K
light: B1 light
notes: human Ig kappa; also called L1-5/HK4
B12: humanized antibody No. 158 (antibody, human IgG2)
heavy: B1 heavy with E46K
light: B1 light with K45Q, S80P
notes: human Ig kappa; also called L1-6/HA2
B13: humanized antibody No. 135 (antibody, human IgG2)
heavy: B1 heavy with Q62D, G63D, T65K
light: B2 light
notes: human Ig kappa; also called L2-4/HK1

molecular target: T1, human EphB3 extracellular …; assay: ELISA

Row | Binder | A450 as % of hEphA4-SEAP-His [%]
1 | B1 | 6
2 | B2 | 5.2
3 | B3 | 4.7
4 | B4 | 6.4
5 | B5 | 5.6
6 | B6 | 5.5
7 | B7 | 6.2
8 | B8 | 6.2
9 | B9 | 4.7
10 | B10 | 5.9
11 | B11 | 5.5
12 | B12 | 6.5
13 | B13 | 5

molecular target: T5, human EphA5 extracellular region-SEAP-His protein (human, UniProt P54756 25-573); assay: ELISA
T5 construct: extracellular domain; also called hEphA5-SEAP-His
T5 sequence (P54756 25-573): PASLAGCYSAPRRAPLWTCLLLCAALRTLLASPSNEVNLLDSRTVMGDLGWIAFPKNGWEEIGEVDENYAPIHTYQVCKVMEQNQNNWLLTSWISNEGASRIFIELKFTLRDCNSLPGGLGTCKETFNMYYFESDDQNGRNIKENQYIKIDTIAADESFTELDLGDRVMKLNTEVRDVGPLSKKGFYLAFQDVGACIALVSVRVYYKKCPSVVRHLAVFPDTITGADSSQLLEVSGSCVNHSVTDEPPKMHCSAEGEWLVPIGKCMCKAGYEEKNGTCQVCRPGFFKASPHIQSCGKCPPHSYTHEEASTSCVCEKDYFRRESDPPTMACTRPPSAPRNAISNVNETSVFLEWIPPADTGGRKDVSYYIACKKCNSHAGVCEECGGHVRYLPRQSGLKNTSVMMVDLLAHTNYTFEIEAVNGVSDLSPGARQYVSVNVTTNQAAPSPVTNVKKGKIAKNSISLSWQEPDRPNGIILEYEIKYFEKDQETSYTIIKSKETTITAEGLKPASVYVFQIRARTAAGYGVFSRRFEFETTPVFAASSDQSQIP

Row | Binder | A450 as % of hEphA4-SEAP-His [%]
14 | B1 | 5.8
15 | B2 | 5.2
16 | B3 | 4.7
17 | B4 | 6.1
18 | B5 | 5.7
19 | B6 | 5.5
20 | B7 | 6.5
21 | B8 | 6.3
22 | B9 | 4.7
23 | B10 | 6.1
24 | B11 | 5.6
25 | B12 | 6.7
26 | B13 | 5

molecular target: T6, human EphA4 extracellular region-SEAP-His protein (human, UniProt P54764 20-547); assay: ELISA
T6 construct: also called hEphA4-SEAP-His
T6 sequence (P54764 20-547): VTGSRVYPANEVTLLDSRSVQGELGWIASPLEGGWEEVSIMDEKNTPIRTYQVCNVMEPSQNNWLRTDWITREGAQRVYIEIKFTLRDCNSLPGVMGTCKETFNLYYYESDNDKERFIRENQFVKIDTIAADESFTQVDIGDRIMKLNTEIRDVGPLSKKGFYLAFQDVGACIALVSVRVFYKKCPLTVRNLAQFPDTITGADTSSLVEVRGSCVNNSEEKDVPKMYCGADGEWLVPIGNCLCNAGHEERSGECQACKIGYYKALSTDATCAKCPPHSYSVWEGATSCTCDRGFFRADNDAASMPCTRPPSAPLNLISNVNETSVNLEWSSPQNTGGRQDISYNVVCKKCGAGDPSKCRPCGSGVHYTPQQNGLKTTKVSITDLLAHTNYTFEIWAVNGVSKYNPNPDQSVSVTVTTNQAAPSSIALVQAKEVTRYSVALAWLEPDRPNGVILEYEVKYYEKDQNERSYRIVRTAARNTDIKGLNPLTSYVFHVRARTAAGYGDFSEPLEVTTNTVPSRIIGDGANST

Row | Binder | A450 as % of hEphA4-SEAP-His [%]
27 | B1 | 100
28 | B2 | 100
29 | B3 | 100
30 | B4 | 100
31 | B5 | 100
32 | B6 | 100
33 | B7 | 100
34 | B8 | 100
35 | B9 | 100
36 | B10 | 100
37 | B11 | 100
38 | B12 | 100
39 | B13 | 100

molecular target: T2, human EphA7 extracellular …; assay: ELISA

Row | Binder | A450 as % of hEphA4-SEAP-His [%]
40 | B1 | 5.7
41 | B2 | 5.1
42 | B3 | 4.6
43 | B4 | 6
44 | B5 | 5.6
45 | B6 | 5.5
46 | B7 | 6.1
47 | B8 | 6.3
48 | B9 | 4.5
49 | B10 | 6.2
50 | B11 | 5.6
51 | B12 | 6.3
52 | B13 | 5.2

molecular target: T3, human EphA8 extracellular …; assay: ELISA

Row | Binder | A450 as % of hEphA4-SEAP-His [%]
53 | B1 | 6
54 | B2 | 5.7
55 | B3 | 4.7
56 | B4 | 6
57 | B5 | 5.5
58 | B6 | 5.5
59 | B7 | 5.4
60 | B8 | 5.5
61 | B9 | 4.7
62 | B10 | 6.1
63 | B11 | 5.5
64 | B12 | 6.4
65 | B13 | 5

molecular target: T4, human EphA1 extracellular …; assay: ELISA

Row | Binder | A450 as % of hEphA4-SEAP-His [%]
66 | B1 | 5.8
67 | B2 | 5.1
68 | B3 | 4.9
69 | B4 | 6.2
70 | B5 | 5.7
71 | B6 | 5.4
72 | B7 | 6.5
73 | B8 | 6.4
74 | B9 | 4.8
75 | B10 | 6.3
76 | B11 | 5.5
77 | B12 | 6.5
78 | B13 | 5.2
